{
  "source": "patent US20020090379A1",
  "about": "“INDUCING ANTIBODY RESPONSE AGAINST SELF-PROTEINS WITH THE AID OF FOREIGN T-CELL EPITOPES” (priority 1993, published 2002)",
  "key": {"A^k molecule": {"target": "A^k molecule (Mus musculus, UniProt P01910+P06343)", "test": "Competitive inhibition of radiolabelled peptide binding to affinity purified MHC class II A^k", "settings": "125I-labelled marker HEL(46-61)Y, cold peptide >550 μm, pH 5", "description": "(§1) Peptide-MHC complexes were obtained by incubating ^125I-labelled peptide (10-100 nM) with affinity purified MHC class II molecules (2- 10 μM) at room temperature for 3 days (S. Mouritsen, J Immunol. 148, 1438-1444, 1992). The following peptides were used as radiolabelled markers of binding: Hb(64-76)Y which binds strongly to the E^k molecule and HEL(46-61)Y which binds strongly to the A^k molecule. These complexes were incubated with large amounts of cold non radiolabelled peptide (>550 μm) which should be sufficient to inhibit totally all immunologically relevant MHC class II binding. Either the same peptides were used or were three different overlapping peptides representing the flanking regions as well as the entire OVA(325-336) sequence, containing the T cell epitope, which was substituted into ubiquitin (see Example 2). The three peptides were: TITLEPSQAVHAA (U(12-26)), PSQAVHAAHAEINEKE (U(19-34)) and HAEINEKEGIPPDQQ (U(27-41)). The reaction buffer contained 8 mM citrate, […], and 0.05% NP-40 (pH 5) and peptide-MHC class II complexes were separated (in duplicate) from free peptide by gel filtration using G25 spun columns. Both the radioaictivities of the excluded “void” volume and of the included “void” were measured by gamma spectrometry. The competitive inhibition of maximal binding (in percent) by addition of cold peptide was calculated."}, "E^k molecule": {"test_system": "E^k molecule", "test": "Competitive inhibition of radiolabelled peptide binding to affinity purified MHC class II E^k", "set-up": "species or system mouse", "settings": "125I-labelled marker Hb(64-76)Y, cold peptide >550 μm, pH 5", "description": "as §1"}},
  "data": [
    {"substance": "PSQAVHAAHAEINEKE [U(19-34), overlapping peptide of the OVA(325-336) region substituted into ubiquitin]", "values": [
      {"measurement": "competitive inhibition of maximal binding by addition of cold peptide", "setting": "A^k molecule", "result": 44.6, "unit": "%"},
      {"measurement": "competitive inhibition of maximal binding by addition of cold peptide", "setting": "E^k molecule", "result": 12.2, "unit": "%"}
    ]},
    {"substance": "HAEINEKEGIPPDQQ [U(27-41), overlapping peptide of the OVA(325-336) region substituted into ubiquitin]", "values": [
      {"measurement": "competitive inhibition of maximal binding by addition of cold peptide", "setting": "A^k molecule", "result": 7.8, "unit": "%"},
      {"measurement": "competitive inhibition of maximal binding by addition of cold peptide", "setting": "E^k molecule", "result": 0.0, "unit": "%"}
    ]},
    {"substance": "TITLEPSQAVHAA [U(12-26), overlapping peptide of the OVA(325-336) region substituted into ubiquitin]", "values": [
      {"measurement": "competitive inhibition of maximal binding by addition of cold peptide", "setting": "A^k molecule", "result": 35.3, "unit": "%"},
      {"measurement": "competitive inhibition of maximal binding by addition of cold peptide", "setting": "E^k molecule", "result": 45.6, "unit": "%"}
    ]},
    {"substance": "HEL(46-61): marker peptide which binds strongly to the A^k molecule; cold version used as competitor [reference compound]", "values": [
      {"measurement": "competitive inhibition of maximal binding by addition of cold peptide", "setting": "A^k molecule", "result": 97.4, "unit": "%"},
      {"measurement": "competitive inhibition of maximal binding by addition of cold peptide", "setting": "E^k molecule", "result": 0.0, "unit": "%"}
    ]}
  ]
}
